Measured values published in PMC10588558, “On the regulation of human D‐aspartate oxidase” (Protein Science : A Publication of the Protein Society, 2023).
Numbering of substitutions follows the chain as printed. Names may count otherwise.

Assays:
[1] = target: T1, hDASPO (hDASPO_341), human D-aspartate oxidase (Homo sapiens, UniProt Q99489); test: quenching of apoprotein tryptophan fluorescence (~[…] nm), titration; assay type: binding
T1 construct: gene DDO; full-length canonical isoform, 341 residues; His-tagged (pET11-His-hDASPO), E. coli BL21(DE3) LOBSTR, HiTrap chelating
T1 sequence (Q99489 1-341): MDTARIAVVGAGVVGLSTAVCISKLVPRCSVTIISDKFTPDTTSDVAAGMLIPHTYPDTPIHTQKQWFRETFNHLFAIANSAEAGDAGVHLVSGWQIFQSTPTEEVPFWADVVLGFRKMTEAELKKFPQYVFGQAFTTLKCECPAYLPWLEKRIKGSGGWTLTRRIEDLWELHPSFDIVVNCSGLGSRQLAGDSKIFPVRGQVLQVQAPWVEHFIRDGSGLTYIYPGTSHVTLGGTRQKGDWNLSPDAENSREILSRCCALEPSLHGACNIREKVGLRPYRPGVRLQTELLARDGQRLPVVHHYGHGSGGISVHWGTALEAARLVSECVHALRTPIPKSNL

[2] = target: T2, hDASPO-RED (recombinant hDASPO labelled with the RED-NHS dye) (human, UniProt Q99489 1-341, RED-NHS fluorescent dye on primary amines (lysine residues), degree of labeling ~0.7); test: MST; Monolith NT.115; 10 nM hDASPO-RED with 3 nM to 100 μM label-free pLG72 variant; conditions: both partners purified
T2 construct: human D-aspartate oxidase, canonical isoform 1 (hDASPO_341, 341 amino acids), UniProt Q99489; encoded by the pET11-His-hDASPO plasmid; Same protein as m1, with the dye; also called labeled hDASPO; source: E. coli BL21(DE3) LOBSTR, purified (HiTrap chelating column), labelled with the RED-NHS labeling kit second generation
T2 sequence (looked up): T1 sequence (Q99489 1-341)

`Cc1cc2nc3c(=O)[nH]c(=O)nc-3n(C[C@H](O)[C@H](O)[C@H](O)COP(=O)(O)OP(=O)(O)OC[C@H]3O[C@@H](n4cnc5c(N)ncnc54)[C@H](O)[C@@H]3O)c2cc1C` [FAD] gave a Kd [1] of 16 nM.

B1: pLG72 R30 variant (wild type), recombinant (natural protein, UniProt P59103 1-153, looked up)
chain: MLEKLMGADSLQLFRSRYTLGKIYFIGFQRSILLSKSENSLNSIAKETEEGRETVTRKEGWKRRHEDGYLEMAQRHLQRSLCPWVSYLPQPYAELEEVSSHVGKVFMARNYEFLAYEASKDRRQPLERMWTCNYNQQKDQSCNHKEITSTKAE
notes: primate-specific protein pLG72 (18 kDa), wild type with Arg at position 30; kept in 0.06% N-lauroyl sarcosine; also called R30 pLG72; wild-type (R30) pLG72; source: E. coli BL21-Codon plus (DE3)-RIL, recovered from insoluble inclusion bodies, purified
In the case of B1, the Kd [2] is reported as 6.8 ± 0.6 µM.

B2: pLG72 R30K variant (Arg30Lys), recombinant (natural protein, UniProt P59103 1-153, looked up)
chain: B1 chain with R30K
notes: primate-specific protein pLG72 (18 kDa), Arg30Lys variant related to schizophrenia susceptibility; kept in 0.06% N-lauroyl sarcosine; also called R30K pLG72; source: E. coli BL21-Codon plus (DE3)-RIL, recovered from insoluble inclusion bodies, purified
For B2, the Kd [2] was 3.8 ± 0.4 µM.
